Paper PMC2728291 (Journal of molecular biology, 2009)

B1: BLIP Asp49Ser mutant (natural protein)
chain: AGVMTGAKFTQIQFGMTRQQVLDIAGAENCETGGSFGDSIHCRGHAAGSYYAYATFGFTSAAADAKVDSKSQEKLLAPSAPTLTLAKFNQVTVGMTRAQVLATVGQGSCTTWSEYYPAYPSTAGVTLSLSCFDVDGYSSTGFYRGSAHLWFTDGVLQGKRQWDLV
B2: BLIP Trp112Arg mutant (natural protein)
chain: AGVMTGAKFTQIQFGMTRQQVLDIAGAENCETGGSFGDSIHCRGHAAGDYYAYATFGFTSAAADAKVDSKSQEKLLAPSAPTLTLAKFNQVTVGMTRAQVLATVGQGSCTTRSEYYPAYPSTAGVTLSLSCFDVDGYSSTGFYRGSAHLWFTDGVLQGKRQWDLV
B3: BLIP Glu73Tyr mutant (natural protein)
chain: AGVMTGAKFTQIQFGMTRQQVLDIAGAENCETGGSFGDSIHCRGHAAGDYYAYATFGFTSAAADAKVDSKSQYKLLAPSAPTLTLAKFNQVTVGMTRAQVLATVGQGSCTTWSEYYPAYPSTAGVTLSLSCFDVDGYSSTGFYRGSAHLWFTDGVLQGKRQWDLV
B4: BLIP Phe142Gly mutant (natural protein)
chain: AGVMTGAKFTQIQFGMTRQQVLDIAGAENCETGGSFGDSIHCRGHAAGDYYAYATFGFTSAAADAKVDSKSQEKLLAPSAPTLTLAKFNQVTVGMTRAQVLATVGQGSCTTWSEYYPAYPSTAGVTLSLSCFDVDGYSSTGGYRGSAHLWFTDGVLQGKRQWDLV
B5: BLIP Glu31Gln mutant (natural protein)
chain: AGVMTGAKFTQIQFGMTRQQVLDIAGAENCQTGGSFGDSIHCRGHAAGDYYAYATFGFTSAAADAKVDSKSQEKLLAPSAPTLTLAKFNQVTVGMTRAQVLATVGQGSCTTWSEYYPAYPSTAGVTLSLSCFDVDGYSSTGFYRGSAHLWFTDGVLQGKRQWDLV

Target: TEM-1 β-lactamase (UniProt P62593 24-286)
Sequence (P62593 24-286): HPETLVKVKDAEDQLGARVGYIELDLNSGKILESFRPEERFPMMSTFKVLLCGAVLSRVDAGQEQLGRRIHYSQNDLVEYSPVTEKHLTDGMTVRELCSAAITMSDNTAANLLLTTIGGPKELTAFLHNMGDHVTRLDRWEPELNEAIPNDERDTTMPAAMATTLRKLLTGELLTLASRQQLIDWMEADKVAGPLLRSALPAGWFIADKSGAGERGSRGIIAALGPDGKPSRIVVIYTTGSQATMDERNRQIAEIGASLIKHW
Assay: enzyme inhibition assay

Row | Binder | Ki
1 | B1 | 16 nM
2 | B2 | 3.9 nM
3 | B3 | 3.7 nM
4 | B4 | 12 nM
5 | B5 | 1.4 nM
